A word on the pKd: it is the negative decadic logarithm of the Kd, by convention in mol/L. Low readings indicate a large Kd, high ones a small Kd.

One assay addresses BCL2-mCherry (wild type) (UniProt P10415). The experiment in a line: single-molecule pull-down and co-IP.
The target in a further assay is BCL2 D103E-mCherry (UniProt P10415). In words: single-molecule pull-down and co-IP.

pKd: −log10 of the molar value.

As for “BIML, TMD-truncated, eGFP-labeled (domain or fragment)”, in the assay with BCL2-mCherry (wild type), the negative logarithm of the Kd (pKd) is 7.20. The same measure, in the same setting: for “BIMEL, TMD-truncated, eGFP-labeled (domain or fragment)” the value was 7.56; for “BIMS, TMD-truncated, eGFP-labeled (domain or fragment)”, 7.80. In the case of “BH3 domain of BIM, eGFP-labeled (domain or fragment)”, the pKd is 7.49 with BCL2 D103E-mCherry and 7.27 with BCL2-mCherry (wild type).

The record behind these values is paper doi:10.1101/2024.02.04.578783.
